From the supplement of paper PMC9170038

Columns and labels:
[1] = test system: MS2 coat protein; test: apparent KD of MS2 coat protein; designed switch direction (-1 OFF switch, 1 ON switch): -1; higher = weaker reporter binding; details: Eterna round: R98
Procedure: (§1)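 RNA-MaP: designed FMN/MS2 RNA switches (84 nt design region) are transcribed on-chip within common flanks and titrated with SNAP-549-labelled MS2 coat protein (about 1-3000 nM) in 100 mM Tris pH 7.5, 80 mM KCl, 4 mM MgCl2, without or with 200 uM FMN. Median apparent KD per design; activation ratio = KD,OFF / KD,ON.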

[2] = test system: MS2 coat protein; test: apparent KD of MS2 coat protein; designed switch direction (-1 OFF switch, 1 ON switch): 1; higher = weaker reporter binding; details: Eterna round: R98
Procedure: as §1

| Sequence | apparent KD of MS2 coat protein ([1]; input ligand: FMN 200 uM) | apparent KD of MS2 coat protein ([1]; input ligand: none) | apparent KD of MS2 coat protein ([2]; input ligand: FMN 200 uM) | apparent KD of MS2 coat protein ([2]; input ligand: none) |
| --- | --- | --- | --- | --- |
| UAUAUAAUUAAGAGCUGGACCAAAACAUGAGGAUCACCCAUGUAGGAUAUCAGCACGAUAAGUGCUGAGAAGGACUACCAGCUC [Denovo 83] | 22.4 nM | 18.5 nM | – | – |
| CCAUACAUGAGGAUCACCCAUGACAUGAGGAUCACCCAUGUGCAGGAUAUACGUGAUAUAAUAAAGUAGAAGGGCAGACCAAAA [LRO002_Exclusion NG 3] | 87.4 nM | 74.2 nM | – | – |
| AUGACAGGCAAAGCGCAACGGCGAACAUGAGGAUCACCCAUGUAGGAUAUGCUACACAAAGUGUAGCAGAAGGACAUACGACGA [Ex NG2 #82] | 88.6 nM | 41.2 nM | – | – |
| UGCACAUGAGGAUCACCCAUGUAUUGUUCGGUUUAUAGUAGUGAGGAUAUGCAAAGUAUAAGGAAGCAGAAGGCACAGGAUUCA [JR_SSNG3_Sub045] | – | – | 19.5 nM | 26.3 nM |
| UUGACGUCGGAUACAUGAGGAUCACCCAUGUGCCCGCGGGCACAGGAUAUCGAACAUAGUAUUGACGAGAAGGGUGACAGAGAG [Anxeenerce] | – | – | 664 nM | 404 nM |
| CCUACCAACACAGGAUAUGCUAUCCUUUGGGUAGCAGAAGGGUGAAACAUGAGGAUCACCCAUGUGGUGGGACCCGGUGACGGG [Mat - Same State NG 1 - Eli mod - D70] | – | – | 116 nM | 1010 nM |
| CAAUUAUGGUGAGGAUAUGCACAGGAUCACCGUGUAGAAGGCAUCAGGUAGAAGGUGCAGAGGAUCACCCUGUAAGGAUAUAUC [pwkr2 ssNG1 DX.17] | – | – | 109 nM | 666 nM |
| CCGGUGUAUGCAGGAUAUGAGAGGAGGUGACCAUCAGAAGGGCAAGCCCACAUGAGGAUCACCCAUGUACUAAGAGACAAGGCC [Tienlaonso] | – | – | 50.7 nM | 25.5 nM |
| GCCAUCGCAUGAGGAUAUGGACAGCUUUGCUGUCCAGAAGGCAUGUCAUAAGACAUGAGGAUCACCCAUGUAGUUAAGAUGGCA [Mat - Same State NG 1 - JL Mod - D15] | – | – | 74.1 nM | 1070 nM |
| CCGUGACACGAAGGAUAUGUGGGUGGUAGUCUGUGCUCCGCCUACAUGAGGAUCACCCAUGUAUCACAGAAGGUCGGACGUCAA [Zaaerzaza] | – | – | 71.2 nM | 51.3 nM |
| AACAGCGUAGAUAAUAAUGAUUACAUGAGGAUCACCCAUGUAUAGGAUAUGCAGUGGAAUACACUGCAGAAGGAUACAUCGCUG [Exclusion NG 3/18-B1] | 33 nM | 17.5 nM | – | – |
| UUUACAUGAGGAUCACCCAUGUUUAGAAAGUUAAUUAUAAGUGAGGAUAUAUAAUUUAUAAAAUAGUAGAAGGCACUGGGUAUU [JR_SSNG3_Sub079] | – | – | 27.2 nM | 32 nM |
| UUUACAUGAGGAUCACCCAUGUAUGUCACCCAUGUGUGUAAUCAGGAUAUGAAAUAAAUAAUAAAUUAGAAGGGAUAACAUGAG [Attempt 1] | – | – | 72.9 nM | 60.3 nM |
| GUCGAAUUCUUAGGAUAUCGAGUGGAUAACACUCGAGAAGGAAGAUAUACCUGAGGAUCACCCAGGUUAAACUGAACGACAAUA [Same State NG1 - A3C, U17G Submission 7D] | – | – | 17.5 nM | 18.5 nM |
| AAUAUAAAAGAGCUGGAUAACUCAACAUGAGGAUCACCCAUGUAGGAUAUCAGCACGAUAAGUGCUGAGAAGGACAACCAGCUC [Denovo 69] | 16.2 nM | 14.8 nM | – | – |
| CAUAGGUGUACAUGAGGAUCACCCAUGUCCCUGGUCAUUGGACAGGAUAUAUGGGCGGUCGCUUCAUAGAAGGGUUAAAUGGGA [Orenatis] | – | – | 224 nM | 66.6 nM |
| ACAUGAGGAUCACCCAUGUAAUAACAUCGGAUUGUCGAAGGUGAGGAUAUCGUACUGGAAUAUUUCGAGAAGGCACAUUCUCCU [JR_SSNG3_Sub075] | – | – | 25.9 nM | 23.5 nM |
| AGCUGUGGCCGAGGAUAUCUAUCUUCAAUAACCGAAAUAUAAUCGGACAUGAGGAUCACCCAUGUAGAGAAGGCGGUCUCAGCA [Eli xng2 2.033] | 100 nM | 37.7 nM | – | – |
| UCACUCACGUCAGGAUAUGGAUCGGAAAACGAUCCAGAAGGGACCUGCAAACCUGAGGAUCACCCUGGUUCCAAUAACGAGUGA [SameSame 10 - Jieux - Same State NG 1] | – | – | 133 nM | 222 nM |
| AUGCUUCACACAGGAUAUACAUGAGGAUCACCCAUGUGUGGGCGGUAGCUGACACGAGCUACCGGGUAGAAGGGUGUGAAGCAU [xclu_NG2_cac21] | 127 nM | 32.6 nM | – | – |
